Assay results: publication PMC6384963, “The β-N-Acetylhexosaminidase in the Synthesis of Bioactive Glycans: Protein and Reaction Engineering” (Molecules, 2019)
Substitutions are numbered along the chain they refer to. In names and notes the source's numbering stands.

B1: TfHex (β-N-acetylhexosaminidase from Talaromyces flavus) (Talaromyces flavus; Y470N) (protein)
chain: VAVNPLPAPRSITWGTSGPISVPHNVDVKLPKNAIINDAWERAWTSIKQLRWVPQATEAPISSYEPFPTVAPTSASTASSTPLPSSSAAAVAARSQKRGHQKGSHEKRGHSQSTLRTVTVTVSDLNADLQAEVDESYTLVLDSGSSTLAITANTTWGALHAFTTLQQLVIYQDNSLIIEQPVHIEDSPLYPWRGVMIDTGRNFITVPKIKEQIDGMALSKLNILHWHLDDSQSWPVHMDTYPQMTNDAYSPWQTYSHEDIKDIIEYARARAVRVVPEVDMPGHSAAGWQQVDPSIVACAHSWWSNDNWPYHTAVEPTPGQLDPLNNKTYGVVEKVYNELSGIFTDDFFHVGGDELQTGCYNFSTYVSDYLAADPSRTYNDVTQYWVDHAFPIFKKIQNRKLVIWEDLIINNPHAPNVSTENLLVQSWNNGLTNINNLTNLGYDVLVSSSDFMNLDCGYGGFVTNDPRYDVMVNPDAVDGLANFNWGGNGGSWCAPYKTWQRIYDYDFTTNLTDAQAAHVKGAVAPLWSEQVDDTVISGKMWPRAAALAELVWSGNKDPKTGDKRTTYMTQRILNFREYLVANGVQAAPLVPKYCLQHPHSCDLYYDQTAVV
notes: secreted from Pichia pastoris KM71H, pPICZαA vector; purified by cation-exchange chromatography
B2: TfHex (β-N-acetylhexosaminidase from Talaromyces flavus) (Talaromyces flavus) (protein)
chain: B1 chain with N453Y
notes: as for B1
B3: TfHex (β-N-acetylhexosaminidase from Talaromyces flavus) (Talaromyces flavus; Y470F) (protein)
chain: B1 chain with N453F
notes: as for B1
B4: TfHex (β-N-acetylhexosaminidase from Talaromyces flavus) (Talaromyces flavus; Y470H) (protein)
chain: B1 chain with N453H
notes: as for B1

Substrate: CC(=O)N[C@H]1[C@H](Oc2ccc([N+](=O)[O-])cc2)O[C@H](CO)[C@@H](O)[C@@H]1O
Assay: purified protein
Type: biochemical, Talaromyces flavus
Settings: McIlvaine buffer pH 5.0, 25 °C, hydrolysis

Row | Protein | Km | kcat | kcat/Km
1 | B1 | 890 ± 130 µM | 11.6 ± 0.6 s⁻¹ | 13000 M⁻¹ s⁻¹
2 | B2 | 110 ± 20 µM | 47 ± 1 s⁻¹ | 434000 M⁻¹ s⁻¹
3 | B3 | 23 ± 8 µM | 0.27 ± 0.01 s⁻¹ | 12000 M⁻¹ s⁻¹
4 | B4 | 53 ± 8 µM | 0.67 ± 0.02 s⁻¹ | 13000 M⁻¹ s⁻¹

Substrate: CC(=O)N[C@H]1[C@H](Oc2ccc([N+](=O)[O-])cc2)O[C@H](CO)[C@H](O)[C@@H]1O
Assay: purified protein
Type: biochemical, Talaromyces flavus
Settings: McIlvaine buffer pH 5.0, 25 °C, hydrolysis

Row | Protein | Km | kcat | kcat/Km
5 | B1 | 890 ± 90 µM | 0.35 ± 0.01 s⁻¹ | 400 M⁻¹ s⁻¹
6 | B2 | 690 ± 90 µM | 104 ± 5 s⁻¹ | 150000 M⁻¹ s⁻¹
7 | B3 | 50 ± 5 µM | 0.166 ± 0.003 s⁻¹ | 3300 M⁻¹ s⁻¹
8 | B4 | 350 ± 30 µM | 0.188 ± 0.004 s⁻¹ | 530 M⁻¹ s⁻¹
